Test results published in US6960559 (UNIVERSITY OF ZURICH, dated 2005).
The star is where a group is joined. Cbz = O=C(OCc1ccccc1)*

target: T1, C6 plasma membrane associated metalloendoprotease (rat C6 glioblastoma cells) (rat); assay: cell-based or functional assay

Row | Binder | IC50 of C6 cell spreading on CNS myelin [µM]
1 | Cbz-Gly-Leu-Phe-NH2 (SMILES CC(C)C[C@H](NC(=O)CNC(=O)OCc1ccccc1)C(=O)N[C@@H](Cc1ccccc1)C(N)=O) [cbz-GLF-NH2] | 5
2 | Cbz-Gly-Phe-Phe-OMe (SMILES COC(=O)[C@H](Cc1ccccc1)NC(=O)[C@H](Cc1ccccc1)NC(=O)CNC(=O)OCc1ccccc1) [cbz-GFF-OCH3] | 5

target: T1, C6 plasma membrane associated …; assay: cell-based or functional assay; remark: another data set of the same source

Row | Binder | IC50 on CNS myelin [µM], half maximal inhibition of C6 cell spreading [µM]
3 | Cbz-Ala-Phe-Tyr-NH2 (SMILES C[C@H](NC(=O)OCc1ccccc1)C(=O)N[C@@H](Cc1ccccc1)C(=O)N[C@@H](Cc1ccc(O)cc1)C(N)=O) [cbz-AFY-NH2] | 20
4 | Cbz-Gly-Phe-Phe-OH (SMILES O=C(CNC(=O)OCc1ccccc1)N[C@@H](Cc1ccccc1)C(=O)N[C@@H](Cc1ccccc1)C(=O)O) [cbz-GFF] | 300
5 | Cbz-Tyr-Tyr-OH (SMILES O=C(N[C@@H](Cc1ccc(O)cc1)C(=O)N[C@@H](Cc1ccc(O)cc1)C(=O)O)OCc1ccccc1) [carbobenzoxy-tyrosine-tyrosine] | 300
6 | Cbz-Gly-Phe-NH2 (SMILES NC(=O)[C@H](Cc1ccccc1)NC(=O)CNC(=O)OCc1ccccc1) [carbobenzoxy-Gly-Phe-amide] | 600
7 | Cbz-FAFY-NH2 (SMILES C[C@H](NC(=O)[C@H](Cc1ccccc1)NC(=O)OCc1ccccc1)C(=O)N[C@@H](Cc1ccccc1)C(=O)N[C@@H](Cc1ccc(O)cc1)C(N)=O) [carbobenzoxy-Phe-Ala-Phe-Tyr-amide] | 3
8 | Cbz-Gly-Phe-Phe-NH2 (SMILES NC(=O)[C@H](Cc1ccccc1)NC(=O)[C@H](Cc1ccccc1)NC(=O)CNC(=O)OCc1ccccc1) [Carbobenzoxy-Gly-Phe-Phe-amide] | 8
9 | Cbz-Phe-Ala-NH2 (SMILES C[C@H](NC(=O)[C@H](Cc1ccccc1)NC(=O)OCc1ccccc1)C(N)=O) [cbz-FA-NH2] | 600
10 | H-Ala-Phe-Tyr-NH2 [AFY-NH2] | 1000
11 | H-FAFY-NH2 [FAFY-NH2] | 300
12 | Cbz-Ala-Phe-NH2 (SMILES C[C@H](NC(=O)OCc1ccccc1)C(=O)N[C@@H](Cc1ccccc1)C(N)=O) [cbz-AF-NH2] | 600
